We go through 1 molecule from patent US20200283523A1 (WUXI BIOLOGICS IRELAND, published 2020).

The target of test [1] is T1, human CD19 (human, UniProt P15391 20-556).
T1 sequence (looked up): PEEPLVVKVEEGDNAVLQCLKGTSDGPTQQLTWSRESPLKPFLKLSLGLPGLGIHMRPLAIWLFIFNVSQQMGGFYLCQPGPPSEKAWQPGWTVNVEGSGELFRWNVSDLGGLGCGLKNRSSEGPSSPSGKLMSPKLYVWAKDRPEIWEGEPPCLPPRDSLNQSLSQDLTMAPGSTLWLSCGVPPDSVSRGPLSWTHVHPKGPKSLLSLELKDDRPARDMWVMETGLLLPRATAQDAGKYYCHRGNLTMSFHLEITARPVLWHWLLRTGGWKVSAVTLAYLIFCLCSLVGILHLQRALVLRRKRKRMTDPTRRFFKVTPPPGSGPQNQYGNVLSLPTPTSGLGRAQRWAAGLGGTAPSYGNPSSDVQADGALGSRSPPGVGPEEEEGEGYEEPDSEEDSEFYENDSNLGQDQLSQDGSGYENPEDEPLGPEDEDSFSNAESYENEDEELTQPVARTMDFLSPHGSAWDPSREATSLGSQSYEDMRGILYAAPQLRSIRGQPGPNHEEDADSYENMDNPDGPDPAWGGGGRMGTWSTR
As to the kind of experiment: cell-based or functional assay.

For test [2], the target named is T1, human CD19. Put plainly: flow cytometry on Ramos cells.
In test [3] the target is T2, human CD3 (human, UniProt P07766 23-207).
T2 construct: whole, on cells; On cells CD3 stands as the full CD3/TCR complex; also called CD3 on Jurkat cells
Put plainly: flow cytometry on Jurkat cells.

In a further test the target is FcRn (UniProt P55899 24-297; P61769 21-119, limits assumed). Put plainly: SPR (Biacore) at pH 6.0, antibody immobilized, FcRn injected, steady state fit. The protocol:
Antibody binding affinity to FcRn was detected using Biacore T200 (or Biacore 8K). Each antibody was immobilized on CMS sensor chip (GE). FcRn at different concentrations in running buffer (50 mM Na2HPO4/NaH2PO4, 150 mM NaCl, 0.05% Tween20, pH 6.0) were injected over the sensor chip at a flow rate of 30 uL/min for an association phase of 60 s, followed by 60 s dissociation. The chip was then regenerated by 1×PBS (pH 7.4) after each binding cycle.
The binding of W3438-T3U4.E17-1.uIgG4.SP to FcRn was tested by SPR at pH 6.0.

The target of test [4] is T1, human CD19. As to the kind of experiment: flow cytometry affinity on Ramos cells, bound/free versus bound plot; Ramos cells, CD19. As to the method:
(§1) Binding affinity to CD3 and CD19 was determined by flow cytometry using Jurkat and Ramos cells, respectively. The cells were transferred in to 96-well U-bottom plates (BD) at a density of 5×10⁴ cells/well. Antibodies to be tested were 1:2-fold serially diluted in 1% 1×PBS/1% BSA and incubated with cells at 4° C. for 1 hr. Then, the plates were centrifuged at 1500 rpm for 4 mins and the supernatant discarded. The secondary antibody, Alexa647 conjugated goat anti-human IgG Fc (Jackson, Cat #109-605-098) or FITC conjugated goat anti-His (Bethyl, Cat # A190-113F) was added to re-suspended cells and incubated at 4° C. in the dark for 30 min. The cells were washed once and re-suspended in 100 μL 1×PBS/1% BSA. Fluorescence intensity was measured by flow cytometry (BD Canto II) and analyzed by FlowJo. Fluorescence intensity was converted to bound molecules/cell based on the quantitative beads (Quantum™ MESF Kits, Bangs Laboratories). KD was calculated by Graphpad Prism5.
(§2) The binding affinity of W3438-T3U4.E17-1.uIgG4.SP to human CD19 and CD3 was tested on Ramos and Jurkat cells by flow cytometry. The bound IgG/free IgG versus bound IgG was plotted in FIGS. 14A-14B.

Test [5] addresses T2, human CD3. Put plainly: flow cytometry affinity on Jurkat cells, bound/free versus bound plot; Jurkat cells, CD3. As to the method: as §1, §2
The target of the next test is FcγRI (UniProt P12314 16-288, limits assumed). As to the kind of experiment: SPR (Biacore), receptor captured on anti-his chip, antibody injected, 1:1 Langmuir fit. As to the method: (§3) Antibody binding affinity to FcγRs was detected using Biacore T200 (or Biacore 8K). Each receptor was captured on an anti-his antibody immobilized CMS sensor chip (GE). Antibodies at different concentrations were injected over the sensor chip at a flow rate of 30 uL/min for an association phase of 60 s, followed by 60 s dissociation. The chip was then regenerated by 10 mM glycine (pH 1.5) after each binding cycle.
(§4) The sensorgrams of blank surface and buffer channel were subtracted from the test sensorgrams. The experimental data was fitted by 1:1 model using Langmiur analysis (for FcγRI) or steady state model (for other receptors). A molecular weight of 150 KDa was used to calculate the molar concentration of antibodies.

A further test has as its target FcγRIIIa (F176) (UniProt P08637 17-208). As to the kind of experiment: SPR (Biacore), receptor captured on anti-his chip, antibody injected, steady state fit. As to the method:
as §3, §4

Another test concerns the target FcγRIIIa (V176) (UniProt P08637 17-208). The test is described as above. The protocol:
as §3, §4

A further test has as its target T3, FcγRIIa (R167) (UniProt P12318 36-218, limits assumed).
T3 sequence (looked up): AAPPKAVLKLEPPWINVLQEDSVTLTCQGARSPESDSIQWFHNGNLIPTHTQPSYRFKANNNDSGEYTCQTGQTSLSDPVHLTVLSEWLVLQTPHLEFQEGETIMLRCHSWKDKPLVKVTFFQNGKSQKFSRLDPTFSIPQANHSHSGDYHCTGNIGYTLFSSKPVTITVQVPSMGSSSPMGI
The test is described as above. As to the method: as §3, §4

In a further test the target is T4, C1Q (UniProt P02745 23-245; P02746 28-253; P02747 29-245).
T4 construct: also called Clq
Put plainly: ELISA, antibody coated on the plate, C1q titrated (axis [C1q] nM), anti-human C1q-HRP detection. The protocol:
ELISA Plates (Nunc) were coated with antibody samples at 3 μg/mL overnight at 4° C. After blocking and washing, C1q was gradient diluted starting from 600 μg/mL and incubated at room temperature for 2 hr. The plates were then washed and subsequently incubated with sheep anti-human C1q Ab-HRP for 1 hr. After washing, TMB substrate was added and the interaction was stopped by 2 M HCl. The absorbance at 450 nm was read using a microplate reader (Molecular Device).
The binding activity of antibodies to C1Q was tested by ELISA.

T2 sequence (P07766 23-207): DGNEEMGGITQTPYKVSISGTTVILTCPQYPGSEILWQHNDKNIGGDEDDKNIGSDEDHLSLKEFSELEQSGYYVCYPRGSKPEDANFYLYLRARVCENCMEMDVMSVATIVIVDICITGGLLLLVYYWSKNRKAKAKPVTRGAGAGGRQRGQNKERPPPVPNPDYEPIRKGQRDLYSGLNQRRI
Chain of FcγRIIIa (V176) (P08637 17-208 F176V limits assumed): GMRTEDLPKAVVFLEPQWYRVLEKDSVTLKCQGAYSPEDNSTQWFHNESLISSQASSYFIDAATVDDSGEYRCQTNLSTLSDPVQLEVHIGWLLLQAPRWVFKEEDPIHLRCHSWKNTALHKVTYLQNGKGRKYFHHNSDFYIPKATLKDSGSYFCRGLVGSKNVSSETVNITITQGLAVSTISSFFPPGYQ
Chain of FcRn (P55899 24-297 limits assumed, chain 1 of 2): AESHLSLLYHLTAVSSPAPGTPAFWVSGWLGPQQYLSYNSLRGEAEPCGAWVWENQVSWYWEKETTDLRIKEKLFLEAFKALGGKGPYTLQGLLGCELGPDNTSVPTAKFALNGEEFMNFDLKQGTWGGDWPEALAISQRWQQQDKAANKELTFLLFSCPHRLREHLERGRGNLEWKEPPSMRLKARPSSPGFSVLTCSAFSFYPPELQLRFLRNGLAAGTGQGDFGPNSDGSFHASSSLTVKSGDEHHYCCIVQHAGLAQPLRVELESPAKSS
Chain of FcRn (P61769 21-119 limits assumed, chain 2 of 2): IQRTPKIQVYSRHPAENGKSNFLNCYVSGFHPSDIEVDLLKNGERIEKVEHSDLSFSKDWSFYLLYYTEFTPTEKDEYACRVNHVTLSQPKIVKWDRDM
T4 sequence (P02745 23-245 limits assumed, chain 1 of 3): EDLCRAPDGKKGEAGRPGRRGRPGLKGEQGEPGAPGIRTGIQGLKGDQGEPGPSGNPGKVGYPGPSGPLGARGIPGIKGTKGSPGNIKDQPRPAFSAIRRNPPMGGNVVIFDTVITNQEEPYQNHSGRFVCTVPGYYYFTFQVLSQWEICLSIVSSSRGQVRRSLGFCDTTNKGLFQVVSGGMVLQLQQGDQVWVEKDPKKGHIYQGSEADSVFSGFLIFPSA
T4 sequence (P02746 28-253 limits assumed, chain 2 of 3): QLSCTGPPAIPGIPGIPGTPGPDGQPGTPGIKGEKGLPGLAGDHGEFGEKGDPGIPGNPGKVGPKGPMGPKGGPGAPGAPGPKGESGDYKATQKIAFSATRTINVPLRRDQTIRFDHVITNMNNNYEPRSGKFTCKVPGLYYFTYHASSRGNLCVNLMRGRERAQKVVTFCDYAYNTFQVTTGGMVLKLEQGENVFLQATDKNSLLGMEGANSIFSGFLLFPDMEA
T4 sequence (P02747 29-245 limits assumed, chain 3 of 3): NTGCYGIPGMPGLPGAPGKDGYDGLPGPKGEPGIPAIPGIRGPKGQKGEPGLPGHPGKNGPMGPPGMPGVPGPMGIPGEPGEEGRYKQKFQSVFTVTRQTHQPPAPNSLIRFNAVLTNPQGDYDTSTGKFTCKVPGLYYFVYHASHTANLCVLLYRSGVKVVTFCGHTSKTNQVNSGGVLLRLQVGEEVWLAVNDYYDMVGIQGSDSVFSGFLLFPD
Chain of FcγRI (P12314 16-288 limits assumed): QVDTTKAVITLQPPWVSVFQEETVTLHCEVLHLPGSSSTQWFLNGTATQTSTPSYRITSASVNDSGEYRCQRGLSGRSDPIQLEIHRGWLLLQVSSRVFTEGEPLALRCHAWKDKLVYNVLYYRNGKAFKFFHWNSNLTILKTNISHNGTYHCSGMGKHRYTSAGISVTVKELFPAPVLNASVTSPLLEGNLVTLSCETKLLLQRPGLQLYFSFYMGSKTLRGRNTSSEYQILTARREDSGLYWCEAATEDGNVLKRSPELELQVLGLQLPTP
Chain of FcγRIIIa (F176) (P08637 17-208 limits assumed): as the sequence (P08637 17-208 F176V limits assumed) above, with V160F counted along it

B1: W3438-T3U4.E17-1.uIgG4.SP (bispecific antibody)
light 1: DIVMTQSPDSLAVSLGERATINCKSSQSLLNSRTRKNYLAWYQQKPGQPPKLLIYWASTRQSGVPDRFSGSGSGTDFTLTISSLQAEDVAVYYCTQSHTLRTFGGGTKVEIKPDIQNPDPAVYQLRDSKSSDKSVCLFTDFDSQTQVSQSKDSDVYITDKCVLDMRSMDFKSNSAVAWSQKSDFACANAFQNSIIPEDTFFPSPESS
heavy 1: QVQLVQSGAEVKKPGSSVKVSCKASGFAFTDYYIHWVRQAPGQGLEWMGWISPGNVNTKYNENFKGRVTITADKSTSTAYMELSSLRSEDTAVYYCARDGYSLYYFDYWGQGTLVTVLEDLKNVFPPEVAVFEPSEAEISHTQKATLVCLATGFYPDHVELSWWVNGKEVHSGVCTDPQPLKEQPALQDSRYALSSRLRVSATFWQNPRNHFRCQVQFYGLSENDEWTQDRAKPVTQIVSAEAWGRYGPPCPPCPAPEFLGGPSVFLFPPKPKDTLMISRTPEVTCVVVDVSQEDPEVQFNWYVDGVEVHNAKTKPREEQFNSTYRVVSVLTVLHQDWLNGKEYKCKVSNKGLPSSIEKTISKAKGQPREPQVYTLPPCQEEMTKNQVSLWCLVKGFYPSDIAVEWESNGQPENNYKTTPPVLDSDGSFFLYSRLTVDKSRWQEGNVFSCSVMHEALHNHYTQKSLSLSLGK
light 2: DIQLTQSPSFLSASVGDRVTITCSASSTVNYMHWYQQKPGKAPKLLIYSTSNLASGVPSRFSGSGSGTEFTLTISSLQPEDFATYYCHQWSSYPYTFGQGTKLEIKRTVAAPSVFIFPPSDEQLKSGTASVVCLLNNFYPREAKVQWKVDNALQSGNSQESVTEQDSKDSTYSLSSTLTLSKADYEKHKVYACEVTHQGLSSPVTKSFNRGEC
heavy 2: QMQLVQSGPEVKKPGTSVKVSCKASGYAFTSYNMYWVRQARGQRLEWIGYIDPYNGDTTYNQKFKGRVTITRDMSTSTAYMELSSLRSEDTAVYYCLTTAYAMDYWGQGTLVTVSSASTKGPSVFPLAPCSRSTSESTAALGCLVKDYFPEPVTVSWNSGALTSGVHTFPAVLQSSGLYSLSSVVTVPSSSLGTKTYTCNVDHKPSNTKVDKRVESKYGPPCPPCPAPEFLGGPSVFLFPPKPKDTLMISRTPEVTCVVVDVSQEDPEVQFNWYVDGVEVHNAKTKPREEQFNSTYRVVSVLTVLHQDWLNGKEYKCKVSNKGLPSSIEKTISKAKGQPREPQVCTLPPSQEEMTKNQVSLSCAVKGFYPSDIAVEWESNGQPENNYKTTPPVLDSDGSFFLVSRLTVDKSRWQEGNVFSCSVMHEALHNHYTQKSLSLSLGK
notes: Bispecific, bivalent: one anti-CD3 arm with TCR constant domains and one native anti-CD19 Fab arm, IgG4 S228P Fc with knobs-into-holes; also called WBP3438; CD3×CD19 bispecific antibody; copies: 1 + 1 + 1 + 1
Regarding B1, in the test with human CD19 [1], the “cytotoxic activity on Raji cells with CD8+ T cells, EC50” value came out at 15 nM. Besides, the values for the concentration for a half-maximal effect (EC50) in the test with human CD19 [2] and with human CD3 [3] were 15.6 nM and 47 nM, respectively. Also, the Kd with FcRn came out at 2580 nM; in the test with human CD19 [4] it was 23 nM; in the test with human CD3 [5], 9 nM; with FcγRI, 9.79 nM; with FcγRIIIa (F176), 29300 nM; with FcγRIIIa (V176), 14000 nM. In the test with FcγRIIa (R167), binding was put at a Kd of 15800 nM. In the test with C1Q, the binding result is “no binding (tested: about 1500 nM C1q)”.
